Assay results reported in patent US20230265151A1, “GIP/GLP1 CO-AGONIST COMPOUNDS” (priority 2020, published 2023).
*1 amine or outer side, *2 acyl side, *3 side chain or, on linkers, in order; H or OH if unused. Where no end group is shown, it is not given here. Side-chain parts run from the residue outwards. [ ]: non-standard residue; d: D form. The star is where a group is joined. αMePhe(2-F) = C[C@](N)(Cc1ccccc1F)C(=O)O; γGlu = O=C(O)[C@H](CCC(=O)[*:2])N[*:1]; C14 diacid = O=C(O)CCCCCCCCCCCCC(=O)*; αMeY = C[C@](N)(Cc1ccc(O)cc1)C(=O)O; αMeF = C[C@](N)(Cc1ccccc1)C(=O)O; αMeL = CC(C)C[C@](C)(N)C(=O)O; Orn = NCCC[C@H](N)C(=O)O; AEEA = NCCOCCOCC(=O)O; Aib = CC(C)(N)C(=O)O

T1: human GIP receptor (human, UniProt P48546 22-466)
T1 sequence (looked up): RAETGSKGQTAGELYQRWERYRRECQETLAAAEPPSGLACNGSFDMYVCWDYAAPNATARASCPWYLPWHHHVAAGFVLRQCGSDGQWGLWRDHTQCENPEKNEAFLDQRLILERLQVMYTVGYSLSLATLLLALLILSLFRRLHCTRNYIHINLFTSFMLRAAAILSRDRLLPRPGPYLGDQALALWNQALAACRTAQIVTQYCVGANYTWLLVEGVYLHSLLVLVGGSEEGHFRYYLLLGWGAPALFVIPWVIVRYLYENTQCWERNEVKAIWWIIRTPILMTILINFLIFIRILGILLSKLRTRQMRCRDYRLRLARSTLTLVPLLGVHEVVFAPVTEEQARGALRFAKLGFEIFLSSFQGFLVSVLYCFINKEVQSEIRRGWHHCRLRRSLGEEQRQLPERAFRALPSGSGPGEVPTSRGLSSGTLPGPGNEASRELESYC


Experiments:
Test in all cases: cell-based or functional assay
human GIP receptor = target: T1, human GIP receptor
human GLP-1 receptor = human GLP-1 receptor (human, UniProt P43220 24-463)
human glucagon receptor = human glucagon receptor (human, UniProt P47871 26-477)

Binder | EC50, cAMP (human GIP receptor) [nM] | Emax, cAMP (human GIP receptor) [%] | EC50, cAMP (human GLP-1 receptor) [nM] | EC50, cAMP (human glucagon receptor) [nM] | Emax, cAMP (human GLP-1 receptor) [%]
Y[Aib]EGT[αMePhe(2-F)]TSDK([AEEA-AEEA-γGlu-C14 diacid])SI[αMeL]LD[Orn]IAQ[Aib]E[αMeF]I[dE][αMeY]LIEGGK([AEEA-AEEA-γGlu-C14 diacid])SSGAPPPS-NH2 (N-terminus assumed; SMILES CC[C@H](C)[C@H](NC(=O)[C@H](CCCN)NC(=O)[C@H](CC(=O)O)NC(=O)[C@H](CC(C)C)NC(=O)[C@](C)(CC(C)C)NC(=O)[C@@H](NC(=O)[C@H](CO)NC(=O)[C@H](CCCCNC(=O)COCCOCCNC(=O)COCCOCCNC(=O)CC[C@H](NC(=O)CCCCCCCCCCCCC(=O)O)C(=O)O)NC(=O)[C@H](CC(=O)O)NC(=O)[C@H](CO)NC(=O)[C@@H](NC(=O)[C@](C)(Cc1ccccc1F)NC(=O)[C@@H](NC(=O)CNC(=O)[C@H](CCC(=O)O)NC(=O)C(C)(C)NC(=O)[C@@H](N)Cc1ccc(O)cc1)[C@@H](C)O)[C@@H](C)O)[C@@H](C)CC)C(=O)N[C@@H](C)C(=O)N[C@@H](CCC(N)=O)C(=O)NC(C)(C)C(=O)N[C@@H](CCC(=O)O)C(=O)N[C@@](C)(Cc1ccccc1)C(=O)N[C@H](C(=O)N[C@H](CCC(=O)O)C(=O)N[C@@](C)(Cc1ccc(O)cc1)C(=O)N[C@@H](CC(C)C)C(=O)N[C@H](C(=O)N[C@@H](CCC(=O)O)C(=O)NCC(=O)NCC(=O)N[C@@H](CCCCNC(=O)COCCOCCNC(=O)COCCOCCNC(=O)CC[C@H](NC(=O)CCCCCCCCCCCCC(=O)O)C(=O)O)C(=O)N[C@@H](CO)C(=O)N[C@@H](CO)C(=O)NCC(=O)N[C@@H](C)C(=O)N1CCC[C@H]1C(=O)N1CCC[C@H]1C(=O)N1CCC[C@H]1C(=O)N[C@@H](CO)C(N)=O)[C@@H](C)CC)[C@@H](C)CC) [Example 112] | 0.0229 | 93.6 | 2.26 | > 9950 | 
YXEGTXTSDXSIXLDXKAQXEFIXXLIEGGPSSGAPPPSK (Aib2, αMeF(2F)6, 4Pal10, αMeL13, Orn16, Aib20, D-Glu24, αMeY25, K17 and K40: K(AEEA2-(γ-Glu)-(4-(4-tert-butylphenyl)butanoyl)), C-terminal NH2) [Example 135] | 0.0184 | 92.3 | 0.271 | > 9950 | 
Y[Aib]EGT[αMePhe(2-F)]TSDV[Aib]I[αMeL]LD[Orn]K([AEEA-AEEA-γGlu-C14 diacid])AQ[Aib]EFIK([AEEA-AEEA-γGlu-C14 diacid])[αMeY]LIEGGPSSGAPPPS-NH2 [Example 115] | 0.103 |  | 0.16 | > 9950 | 91.6
Y[Aib]EGT[αMePhe(2-F)]TSDV[Aib]I[αMeL]LD[Orn]K([AEEA-AEEA-γGlu-C14 diacid])AQ[Aib]E[αMeF]IK([AEEA-AEEA-γGlu-C14 diacid])[αMeF]LIEGGPSSGAPPPS-NH2 [Example 123] | 0.101 | 94.9 | 0.508 | > 9950 | 96.3
YXEGTXTSDXXIXLDXKAQXEFIKXLIEGGPSSGAPPPS (Aib2, αMeF(2F)6, 4Pal10, Aib11, αMeL13, Orn16, Aib20, αMeY25, K17 and K24: K(AEEA2-(γ-Glu)-CO-(CH2)12-CO2H), C-terminal NH2) [Example 113] | 0.0331 | 97.9 | 0.291 | > 9950 | 
YXEGTXTSDXSIXLDXKAQXEFIXXLIKGGPSSGAPPPS (Aib2, αMeF(2F)6, 4Pal10, αMeL13, Orn16, Aib20, D-Glu24, αMeY25, K17 and K28: K(AEEA2-(γ-Glu)-(4-(4-tert-butylphenyl)butanoyl)), C-terminal NH2) [Example 133] | 0.018 |  | 0.258 | > 9950 | 
YXEGTXTSDXSIXLDXKAQXEFIKXLIEGGPSSGAPPPS (Aib2, αMeF(2F)6, 4Pal10, αMeL13, Orn16, Aib20, αMeY25, K17 and K24: K(AEEA2-(γ-Glu)-(10-(4-carboxyphenoxy)decanoyl)), C-terminal NH2) [Example 128] | 0.0232 |  | 0.293 | > 9950 | 
YXEGTXTSDXXIXLDXKAQXEXIKXLIEGGPSSGAPPPS (Aib2, αMeF(2F)6, 4Pal10, Aib11, αMeL13, Orn16, Aib20, αMeF22, αMeY25, K17 and K24: K(AEEA2-(γ-Glu)-CO-(CH2)12-CO2H), C-terminal NH2) [Example 117] | 0.0352 | 96.4 | 5.6 | > 9950 | 98.2
YXEGTXTSDVSIXLDXKAQXEFIKXLIEGGPSSGAPPPS (Aib2, αMeF(2F)6, αMeL13, Orn16, Aib20, αMeY25, K17 and K24: K(AEEA2-(γ-Glu)-CO-(CH2)12-CO2H), C-terminal NH2) [Example 114] | 0.0613 | 93.8 | 0.176 | > 9950 | 91.7
YXEGTXTSDXXIXLDXKAQXEXIKXLIEGGPSSGAPPPS (Aib2, αMeF(2F)6, 4Pal10, Aib11, αMeL13, Orn16, Aib20, αMeF22, αMeF25, K17 and K24: K(AEEA2-(γ-Glu)-CO-(CH2)12-CO2H), C-terminal NH2) [Example 121] | 0.0271 | 92.8 | 8.95 | > 9950 | 
YXEGTXTSDKSIXLDXKAQXEFIXXLIEGGPSSGAPPPS (Aib2, αMeF(2F)6, αMeL13, Orn16, Aib20, D-Glu24, αMeY25, K10 and K17: K(AEEA2-(γ-Glu)-CO-(CH2)10-CH3), C-terminal NH2) [Example 136] | 0.0069 | 97.4 | 0.0918 | > 9950 | 
YXEGTXTSDXSIXLDXKAQXKFIXXLIEGGPSSGAPPPS (Aib2, αMeF(2F)6, 4Pal10, αMeL13, Orn16, Aib20, D-Glu24, αMeY25, K17 and K21: K(AEEA2-(γ-Glu)-(10-(4-carboxyphenoxy)decanoyl)), C-terminal NH2) [Example 127] | 0.027 |  | 0.762 | > 9950 | 
YXEGTXTSDXSIXLDXKAQXEFIKXLIEGGPSSGAPPPS (Aib2, αMeF(2F)6, 4Pal10, αMeL13, Orn16, Aib20, αMeY25, K17 and K24: K(AEEA2-(γ-Glu)-CO-(CH2)10-CH3), C-terminal NH2) [Example 138] | 0.0197 |  | 0.267 | > 9950 | 
YXEGTXTSDXSIXLDXKAQXEFIXXLIEGKPSSGAPPPS (Aib2, αMeF(2F)6, 4Pal10, αMeL13, Orn16, Aib20, D-Glu24, αMeY25, K17 and K30: K(AEEA2-(γ-Glu)-(4-(4-tert-butylphenyl)butanoyl)), C-terminal NH2) [Example 134] | 0.0238 |  | 0.577 | > 9950 | 
YXEGTXTSDXSIXLDXKAQXEFIXXLIEGGKSSGAPPPS (Aib2, αMeF(2F)6, 4Pal10, αMeL13, Orn16, Aib20, D-Glu24, αMeY25, K17 and K31: K(AEEA2-(γ-Glu)-(8-(4-carboxyphenoxy)octanoyl)), C-terminal NH2) [Example 126] | 0.0472 |  | 1.69 | > 9950 | 
